Numbering of substitutions follows the chain as printed. Names and notes keep the numbering of the source. Blank lines part the entries; values can stand above or below the binder they belong to.
Key:
Experiment in all cases: cell-based or functional assay
[1] = biological target: IL-2 receptor on IL-2 reporter HEK blue cells (Human IL-2 & IL-15 Reporter Cells, hkb-il2bg)
[2] = biological target: T1, IL-22 receptors R1 and R2 on HEK-Blue IL-22 reporter cells (UniProt Q8N6P7 16-574; Q08334 20-325, limits assumed)
T1 sequence (looked up) 1: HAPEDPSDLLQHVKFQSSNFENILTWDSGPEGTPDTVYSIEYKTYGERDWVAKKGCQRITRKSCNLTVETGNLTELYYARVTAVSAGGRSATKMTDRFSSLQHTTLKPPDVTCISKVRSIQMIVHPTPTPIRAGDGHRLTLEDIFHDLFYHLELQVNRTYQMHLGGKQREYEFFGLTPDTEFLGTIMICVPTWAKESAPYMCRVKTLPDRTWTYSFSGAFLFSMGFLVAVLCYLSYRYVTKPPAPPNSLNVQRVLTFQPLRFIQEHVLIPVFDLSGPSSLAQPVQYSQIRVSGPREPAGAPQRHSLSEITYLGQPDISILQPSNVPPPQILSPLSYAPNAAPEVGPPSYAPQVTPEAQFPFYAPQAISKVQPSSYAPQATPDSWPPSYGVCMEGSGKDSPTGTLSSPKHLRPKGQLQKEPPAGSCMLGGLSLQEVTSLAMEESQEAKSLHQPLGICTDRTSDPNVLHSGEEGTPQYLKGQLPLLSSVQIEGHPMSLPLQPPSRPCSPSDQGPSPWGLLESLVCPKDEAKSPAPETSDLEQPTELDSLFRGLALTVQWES
T1 sequence (looked up) 2: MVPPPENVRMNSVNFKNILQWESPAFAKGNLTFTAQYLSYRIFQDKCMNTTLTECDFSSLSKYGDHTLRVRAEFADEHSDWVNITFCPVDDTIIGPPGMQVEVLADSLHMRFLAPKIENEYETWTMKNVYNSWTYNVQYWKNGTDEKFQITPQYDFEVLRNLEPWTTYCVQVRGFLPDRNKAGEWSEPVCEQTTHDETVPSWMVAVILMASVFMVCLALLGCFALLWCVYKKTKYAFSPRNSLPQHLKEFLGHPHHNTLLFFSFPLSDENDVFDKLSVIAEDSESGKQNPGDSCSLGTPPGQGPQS

[3] = biological target: T1, IL-22 receptors R1 and R2 on HEK-Blue …; remark: listed apart in the source

Chain of IL-2 receptor on IL-2 reporter HEK blue cells (Human IL-2 & IL-15 Reporter Cells, hkb-il2bg) (P14784 whole entry, chain 1 of 2): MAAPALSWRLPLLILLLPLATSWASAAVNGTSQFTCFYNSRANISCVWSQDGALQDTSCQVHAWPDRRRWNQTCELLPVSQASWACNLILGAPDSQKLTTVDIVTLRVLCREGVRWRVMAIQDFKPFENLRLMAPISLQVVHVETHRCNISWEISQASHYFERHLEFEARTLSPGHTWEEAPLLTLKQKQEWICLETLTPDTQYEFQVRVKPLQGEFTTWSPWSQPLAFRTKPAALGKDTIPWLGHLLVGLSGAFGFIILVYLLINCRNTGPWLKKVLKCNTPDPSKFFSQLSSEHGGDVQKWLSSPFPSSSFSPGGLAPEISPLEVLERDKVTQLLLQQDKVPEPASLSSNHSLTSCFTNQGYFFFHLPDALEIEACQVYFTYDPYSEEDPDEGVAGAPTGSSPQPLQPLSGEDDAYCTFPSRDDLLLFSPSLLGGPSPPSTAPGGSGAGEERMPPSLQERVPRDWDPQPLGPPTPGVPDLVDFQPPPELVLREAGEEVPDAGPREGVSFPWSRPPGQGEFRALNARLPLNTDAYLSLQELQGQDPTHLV
Chain of IL-2 receptor on IL-2 reporter HEK blue cells (Human IL-2 & IL-15 Reporter Cells, hkb-il2bg) (P31785 whole entry, chain 2 of 2, further chain): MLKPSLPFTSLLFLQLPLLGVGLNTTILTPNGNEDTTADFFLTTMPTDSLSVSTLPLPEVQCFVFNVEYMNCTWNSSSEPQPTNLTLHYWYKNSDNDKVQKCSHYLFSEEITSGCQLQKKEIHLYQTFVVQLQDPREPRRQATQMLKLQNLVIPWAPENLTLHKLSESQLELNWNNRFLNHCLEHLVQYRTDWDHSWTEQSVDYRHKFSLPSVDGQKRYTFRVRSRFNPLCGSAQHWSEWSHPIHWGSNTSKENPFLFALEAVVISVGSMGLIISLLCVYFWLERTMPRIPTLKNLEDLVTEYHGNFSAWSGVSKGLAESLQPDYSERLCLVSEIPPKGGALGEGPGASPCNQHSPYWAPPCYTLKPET

B1: ORK2-008 (foldikine-2, two 8 aa InterLinkers GPPPPPPG) (ligand)
chain: LRPRDLISNINVIVLELKGSETTFMCEYADETATIVEFLNRWITFCQSIISTLTGPPPPPPGTKKTQLQLEHLLLDLQMILNGINNYKNPKLTRMLTFKFYMPKKATELKHLQCLEEELKPLEEVLNLAQSKNFHLRPRDLISNINVIVLELKGSETTFMCEYADETATIVEFLNRWITFCQSIISTLTGPPPPPPGTKKTQLQLEHLLLDLQMILNGINNYKNPKLTRMLTFKFYMPKKATELKHLQCLEEELKPLEEVLNLAQS
- EC-50 (IL-2 reporter HEK blue cells, SEAP, absorbance 630 nm) [1]: 251 pM

B3: ORK2-011 (foldikine-2, two 8 aa InterLinkers GGGSGGGG) (ligand)
chain: LRPRDLISNINVIVLELKGSETTFMCEYADETATIVEFLNRWITFCQSIISTLTGGGSGGGGTKKTQLQLEHLLLDLQMILNGINNYKNPKLTRMLTFKFYMPKKATELKHLQCLEEELKPLEEVLNLAQSKNFHLRPRDLISNINVIVLELKGSETTFMCEYADETATIVEFLNRWITFCQSIISTLTGGGSGGGGTKKTQLQLEHLLLDLQMILNGINNYKNPKLTRMLTFKFYMPKKATELKHLQCLEEELKPLEEVLNLAQS
- EC-50 (IL-2 reporter HEK blue cells, SEAP, absorbance 630 nm) [1]: 171 pM

B4: 3dlq. Pdb sequence-Hydrophobic core stabilised protein (IL-22hydC) (ligand)
chain: ARLDKSNFQQPYITNRMFMLAKEMSLADNNTDVRLIGEKLFHGVSMSERCYLMKQILNFMLEEVLFPQSDRFQPYMQEVVPFLARLSNRLSTCHIEGDDLHIQRNVQKLKDTVKKLGELGEIKAIGELDLLFMSLRNACI
- Kd (apparent, HEK-Blue IL-22 reporter) [2]: 5.4 pM
- gain in affinity against IL-22 WT (HEK-Blue IL-22 reporter) [2]: 2 fold

B6: IL22_WT (IL-22 WT expressed in CHO cells) (ligand)
chain: APISSHCRLDKSNFQQPYITNRTFMLAKEASLADNNTDVRLIGEKLFHGVSMSERCYLMKQVLNFTLEEVLFPQSDRFQPYMQEVVPFLARLSNRLSTCHIEGDDLHIQRNVQKLKDTVKKLGESGEIKAIGELDLLFMSLRNACI
- EC-50 (IL-22 reporter HEK blue cells, SEAP, absorbance 630 nm) [3]: 97.6 pM

B9: ORK2-009 (foldikine-2, two 6 aa InterLinkers GGGSGG) (ligand)
chain: LRPRDLISNINVIVLELKGSETTFMCEYADETATIVEFLNRWITFCQSIISTLTGGGSGGTKKTQLQLEHLLLDLQMILNGINNYKNPKLTRMLTFKFYMPKKATELKHLQCLEEELKPLEEVLNLAQSKNFHLRPRDLISNINVIVLELKGSETTFMCEYADETATIVEFLNRWITFCQSIISTLTGGGSGGTKKTQLQLEHLLLDLQMILNGINNYKNPKLTRMLTFKFYMPKKATELKHLQCLEEELKPLEEVLNLAQS
- EC-50 (IL-2 reporter HEK blue cells, SEAP, absorbance 630 nm) [1]: 211 pM

B12: ORK2-007 (foldikine-2, two 7 aa InterLinkers GPPPPPG) (ligand)
chain: LRPRDLISNINVIVLELKGSETTFMCEYADETATIVEFLNRWITFCQSIISTLTGPPPPPGTKKTQLQLEHLLLDLQMILNGINNYKNPKLTRMLTFKFYMPKKATELKHLQCLEEELKPLEEVLNLAQSKNFHLRPRDLISNINVIVLELKGSETTFMCEYADETATIVEFLNRWITFCQSIISTLTGPPPPPGTKKTQLQLEHLLLDLQMILNGINNYKNPKLTRMLTFKFYMPKKATELKHLQCLEEELKPLEEVLNLAQS
- EC-50 (IL-2 reporter HEK blue cells, SEAP, absorbance 630 nm) [1]: 184 pM

B13: ORK2-010 (foldikine-2, two 7 aa InterLinkers GGGSGGG) (ligand)
chain: B12 chain with P56G, P57G, P58S, P59G, P60G, P190G, P191G, P192S, P193G, P194G
- EC-50 (IL-2 reporter HEK blue cells, SEAP, absorbance 630 nm) [1]: 190 pM

Further lines, results first:

- apparent Kd in comparison with IL22 WT (HEK-Blue IL-22 reporter) [2]: ~4 fold
B2: foldikine-22_3 (SCIL22_3) (ligand)
chain: GVRLDKSNFQQPYITNRTFMLAKEASLADNNTDVRLIGEKLFHGVSMSERCYLMKQVLNFTLEEVLFPQSDRFQPYMQEVVPFLARLSNRLKKLMASSDHIQRNVQKLKDTVKKLGESGEIKAIGELDLLFMSLRNACIANGTLDKSNFQQPYITNRTFMLAKEASLADNNTDVRLIGEKLFHGVSMSERCYLMKQVLNFTLEEVLFPQSDRFQPYMQEVVPFLARLSNRLSRLELLPHIQRNVQKLKDTVKKLGESGEIKAIGELDLLFMSLRNACI

- increase in affinity over wt [2]: 10 fold
B5: mutantE_IL22 (A132Y, D43E, S45R, E77Y, T70I, K61W, S64M) (ligand)
chain: B6 chain with L9E, K11R, K28W, S31M, T37I, E44Y, A90Y

- increase in affinity over wt [2]: 2 fold
B7: mutantD_IL22 (K61W, S64M) (ligand)
chain: B6 chain with K28W, S31M

- apparent Kd in comparison with IL22 WT (HEK-Blue IL-22 reporter) [2]: ~4 fold
B8: foldikine-22_1 (SCIL22_1) (ligand)
chain: GCRLDKSNFQQPYITNRTFMLAKEASLADNNTDVRLIGEKLFHGVSMSERCYLMKQVLNFTLEEVLFPQSDRFQPYMQEVVPFLARLSNRLSTCMPGGSKTHIQRNVQKLKDTVKKLGESGEIKAIGELDLLFMSLRNACIANGTLDKSNFQQPYITNRTFMLAKEASLADNNTDVRLIGEKLFHGVSMSERCYLMKQVLNFTLEEVLFPQSDRFQPYMQEVVPFLARLSNRLSRLELLPHIQRNVQKLKDTVKKLGESGEIKAIGELDLLFMSLRNACI

- EC-50 (IL-22 reporter HEK blue cells, SEAP, absorbance 630 nm) [3]: 2420 pM
B10: ORK22-014 (Foldikine-22, two polyGly InterLinkers) (ligand)
chain: APISESGEIKAIGELDLLFMSLRNACIGGGGGGGGGGAPISSHCRLDKSNFQQPYITNRTFMLAKEASLADNNTDVRLIGEKLFHGVSMSERCYLMKQVLNFTLEEVLFPQSDRFQPYMQEVVPFLARLSNRLSTCHIEGDDLHIQRNVQKLKDTVKKLGESGEIKAIGELDLLFMSLRNACIGGGGGGGGGGAPISSHCRLDKSNFQQPYITNRTFMLAKEASLADNNTDVRLIGEKLFHGVSMSERCYLMKQVLNFTLEEVLFPQSDRFQPYMQEVVPFLARLSNRLSTCHIEGDDLHIQRNVQKLKDTVKKLG

- EC-50 (IL-22 reporter HEK blue cells, SEAP, absorbance 630 nm) [3]: 43.3 pM
B11: ORK22-012 (Foldikine-22, two InterLinkers GGPPPPPPGG) (ligand)
chain: APISESGEIKAIGELDLLFMSLRNACIGGPPPPPPGGAPISSHCRLDKSNFQQPYITNRTFMLAKEASLADNNTDVRLIGEKLFHGVSMSERCYLMKQVLNFTLEEVLFPQSDRFQPYMQEVVPFLARLSNRLSTCHIEGDDLHIQRNVQKLKDTVKKLGESGEIKAIGELDLLFMSLRNACIGGPPPPPPGGAPISSHCRLDKSNFQQPYITNRTFMLAKEASLADNNTDVRLIGEKLFHGVSMSERCYLMKQVLNFTLEEVLFPQSDRFQPYMQEVVPFLARLSNRLSTCHIEGDDLHIQRNVQKLKDTVKKLG
